The results in this text go back to paper doi:10.1101/2023.06.17.545410 (bioRxiv, 2023).

The experiment deals with T1, HsTHUMPD2 (purified) (human, UniProt Q9BTF0-1 1-503).
T1 sequence (looked up): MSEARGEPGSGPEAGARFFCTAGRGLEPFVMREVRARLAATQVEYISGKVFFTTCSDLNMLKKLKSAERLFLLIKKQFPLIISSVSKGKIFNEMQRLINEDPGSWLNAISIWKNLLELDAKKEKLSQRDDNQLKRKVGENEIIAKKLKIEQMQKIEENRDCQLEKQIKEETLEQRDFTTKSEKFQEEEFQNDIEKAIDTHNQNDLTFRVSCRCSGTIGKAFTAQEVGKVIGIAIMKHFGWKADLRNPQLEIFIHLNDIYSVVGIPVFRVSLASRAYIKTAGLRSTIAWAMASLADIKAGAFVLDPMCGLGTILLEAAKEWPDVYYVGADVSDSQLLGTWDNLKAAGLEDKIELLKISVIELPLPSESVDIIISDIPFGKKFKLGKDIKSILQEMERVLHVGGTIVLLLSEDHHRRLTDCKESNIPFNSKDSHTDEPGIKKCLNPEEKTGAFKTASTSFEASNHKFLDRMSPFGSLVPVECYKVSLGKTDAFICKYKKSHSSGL
Description: SEC.

B1: HsTRMT112 (purified) (natural protein, human, UniProt Q9UI30-1 1-125, looked up)
chain: MKLLTHNLLSSHVRGVGSRGFPLRLQATEVRICPVEFNPNFVARMIPKVEWSAFLEAADNLRLIQVPKGPVEGYEENEEFLRTMHHLLLEVEVIEGTLQCPESGRMFPISRGIPNMLLSEEETES
On to B1, for which the binding result is reported as “binds”.
